Test results taken from PMC10511116.

Target: ErbB2 (HER2), recombinant (human) (UniProt P04626)
Assay: ELONA
Settings: every T is Nap-dU (5-[N-(1-naphthylmethyl)carboxamide]-2'-deoxyuridine, printed P); ELONA: ErbB2-coated plate, biotin-aptamer 1 h at room temp, wash 10 mM PBS, 0.05% Tween-20, pH 7.4 (binding buffer not stated); cells: DPBS, 4.5 g/L glucose …

With “ATGTTAGAGTTTGCCTGAGTGCCTCGCAAGGGCGTAACAA [ErbB2 aptamer]” the Kd was 1.37 nM.
